Measurements taken from article doi:10.1101/2024.10.11.617910 (bioRxiv, 2024).

Target: beta-amyloid 42 peptide (UniProt P05067)
Test: SiMoA

binding result: no binding
B1: Donanemab (antibody, V domains shown)
VH: QVQLVQSGAEVKKPGSSVKVSCKASGYDFTRYYINWVRQAPGQGLEWMGWINPGSGNTKYNEKFKGRVTITADESTSTAYMELSSLRSEDTAVYYCAREGITVYWGQGTTVTVSS
VL: DIVMTQTPLSLSVTPGQPASISCKSSQSLLYSRGKTYLNWLLQKPGQSPQLLIYAVSKLDSGVPDRFSGSGSGTDFTLKISRVEAEDVGVYYCVQGTHYPFTFGQGTKLEIK
